The values that follow are results of earlier work, collected in publication PMC10539808.

In this data set the target is Lys66 (UniProt position 148, FTKKMKENAKK). Particulars: not stated (quoted literature value; no ligand mentioned).

On to “Staphylococcal nuclease (SNase), Delta+PHS/V66K variant (Staphylococcus aureus; P117G;H124L;S128A;del44-49;G50F;V51N;V66K)”, for which the pKa is 5.7 and ∼ 5.6.

By pKa is commonly meant the negative logarithm of the acid dissociation constant.
